Assay results taken from patent publication US20250163127A1.
Where two headings read alike, the source gives them in different places. Values belong to the substance of their own block, whether it stands above or below them.

Columns and labels:
[1] = target: PD-L1 (human); assay: flow cytometry on HEK293 cells transfected with PD-L1
Target sequence in this assay (chain, as listed by the source): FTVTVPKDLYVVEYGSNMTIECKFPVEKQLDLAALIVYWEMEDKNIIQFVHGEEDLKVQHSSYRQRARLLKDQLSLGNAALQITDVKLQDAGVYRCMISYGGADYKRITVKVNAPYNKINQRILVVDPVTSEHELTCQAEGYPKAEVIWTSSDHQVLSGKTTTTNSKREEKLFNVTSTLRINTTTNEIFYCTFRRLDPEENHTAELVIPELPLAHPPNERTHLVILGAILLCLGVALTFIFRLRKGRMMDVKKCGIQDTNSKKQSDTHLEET

[2] = target: CD28 (human) (UniProt P10747); assay: flow cytometry on HEK293 cells transfected with CD28
[3] = target: CTLA-4 (human); assay: flow cytometry on HEK293 cells transfected with CTLA4
Target sequence in this assay (chain, as listed by the source): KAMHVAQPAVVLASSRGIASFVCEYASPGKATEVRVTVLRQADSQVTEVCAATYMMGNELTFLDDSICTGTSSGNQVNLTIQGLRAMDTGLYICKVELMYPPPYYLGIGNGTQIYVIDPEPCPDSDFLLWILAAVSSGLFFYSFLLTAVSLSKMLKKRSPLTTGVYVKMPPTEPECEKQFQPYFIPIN

[4] = target: human PD-1 (human) (UniProt Q15116)
[5] = target: PD-1-Fc (human) (UniProt Q15116); assay: ForteBio Octet, PD-1 on anti-human capture sensor, 100 nM
[6] = target: CD2 (human) (UniProt P06729); assay: flow cytometry, CHO-CD2 cells
Target sequence in this assay (P06729 25-351 limits assumed): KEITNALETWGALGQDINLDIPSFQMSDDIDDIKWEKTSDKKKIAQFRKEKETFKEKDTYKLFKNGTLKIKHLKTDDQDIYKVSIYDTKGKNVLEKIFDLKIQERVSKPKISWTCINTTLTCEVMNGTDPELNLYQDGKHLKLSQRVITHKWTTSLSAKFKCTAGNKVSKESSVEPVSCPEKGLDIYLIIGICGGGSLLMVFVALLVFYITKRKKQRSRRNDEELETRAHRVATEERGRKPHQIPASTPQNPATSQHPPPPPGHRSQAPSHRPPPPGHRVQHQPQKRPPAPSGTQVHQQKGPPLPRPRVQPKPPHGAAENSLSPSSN

[7] = target: CD2 (human) (UniProt P06729)
Target sequence in this assay (P06729 25-351): as the sequence (P06729 25-351 limits assumed) above

[8] = target: CTLA-4 (human); assay: flow cytometry on HEK293 cells transfected with CTLA4; Fc control
[9] = target: PD-L1 (human); assay: flow cytometry on HEK293 cells transfected with PD-L1; Fc control
[10] = target: CD28 (human) (UniProt P10747); assay: flow cytometry on HEK293 cells transfected with CD28; Fc control
[11] = target: CD28 (human) (UniProt P10747); assay: flow cytometry, transfected cells
[12] = target: T1, CD96 (human) (UniProt P40200); assay: flow cytometry, transfected HEK293; secondary reagent alone
T1 sequence: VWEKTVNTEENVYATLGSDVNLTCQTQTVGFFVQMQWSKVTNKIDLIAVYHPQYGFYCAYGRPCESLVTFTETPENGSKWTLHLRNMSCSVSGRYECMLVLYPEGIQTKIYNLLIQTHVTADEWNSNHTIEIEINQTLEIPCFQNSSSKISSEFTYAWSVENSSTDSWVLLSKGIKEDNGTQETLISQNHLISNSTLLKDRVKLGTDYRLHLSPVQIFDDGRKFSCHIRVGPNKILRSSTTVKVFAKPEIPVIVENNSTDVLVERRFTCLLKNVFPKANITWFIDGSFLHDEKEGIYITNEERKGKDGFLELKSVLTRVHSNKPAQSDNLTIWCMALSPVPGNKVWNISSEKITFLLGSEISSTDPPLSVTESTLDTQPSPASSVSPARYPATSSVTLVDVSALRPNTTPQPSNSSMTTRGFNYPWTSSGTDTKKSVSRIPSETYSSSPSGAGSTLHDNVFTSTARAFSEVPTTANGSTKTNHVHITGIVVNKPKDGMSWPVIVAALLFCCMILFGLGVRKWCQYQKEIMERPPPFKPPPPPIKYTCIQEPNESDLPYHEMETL

[13] = target: T2, CD226 (human) (UniProt Q15762); assay: as above
T2 sequence: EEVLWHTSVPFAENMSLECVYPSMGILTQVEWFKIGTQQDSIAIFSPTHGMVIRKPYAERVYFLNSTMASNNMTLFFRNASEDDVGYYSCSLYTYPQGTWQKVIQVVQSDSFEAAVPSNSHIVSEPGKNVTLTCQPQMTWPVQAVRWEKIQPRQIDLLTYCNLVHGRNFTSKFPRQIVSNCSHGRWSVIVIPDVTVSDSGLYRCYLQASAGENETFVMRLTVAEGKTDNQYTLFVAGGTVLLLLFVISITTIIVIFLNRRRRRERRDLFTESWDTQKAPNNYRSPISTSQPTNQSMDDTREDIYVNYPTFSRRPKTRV

[14] = target: CD112R (human) (UniProt Q6DKI7); assay: as above
[15] = target: T3, TIGIT (human) (UniProt Q495A1); assay: as above
T3 sequence: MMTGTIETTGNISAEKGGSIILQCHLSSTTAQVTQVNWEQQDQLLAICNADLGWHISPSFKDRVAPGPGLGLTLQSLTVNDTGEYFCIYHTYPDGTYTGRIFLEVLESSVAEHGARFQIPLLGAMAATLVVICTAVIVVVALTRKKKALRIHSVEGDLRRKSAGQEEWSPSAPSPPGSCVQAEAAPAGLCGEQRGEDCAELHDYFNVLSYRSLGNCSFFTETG

[16] = target: ICOS (Homo sapiens (Human)) (UniProt Q9Y6W8); assay: flow cytometry, transfected cells
[17] = target: CTLA-4 (Homo sapiens (Human)) (UniProt P16410); assay: flow cytometry, transfected cells
[18] = target: ICOS (Homo sapiens (Human)) (UniProt Q9Y6W8); assay: flow cytometry, transfected cells; remark: listed apart in the source
[19] = target: CTLA-4 (Homo sapiens (Human)) (UniProt P16410); assay: flow cytometry, transfected cells; remark: listed apart in the source
[20] = target: ICOS (Homo sapiens (Human)) (UniProt Q9Y6W8); assay: flow cytometry, transfected cells; remark: listed apart in the source
[21] = target: CTLA-4 (Homo sapiens (Human)) (UniProt P16410); assay: flow cytometry, transfected cells; remark: listed apart in the source
[22] = target: CD28 (human) (UniProt P10747); assay: flow cytometry, transfected cells; remark: listed apart in the source

WT CD80 IgV-Fc (inert) (Fc fusion), sequence (chain): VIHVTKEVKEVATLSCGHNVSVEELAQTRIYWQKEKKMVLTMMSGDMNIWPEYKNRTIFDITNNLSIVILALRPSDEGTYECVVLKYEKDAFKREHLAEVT
ICOS (Homo sapiens (Human)), sequence (Q9Y6W8 21-199 limits assumed): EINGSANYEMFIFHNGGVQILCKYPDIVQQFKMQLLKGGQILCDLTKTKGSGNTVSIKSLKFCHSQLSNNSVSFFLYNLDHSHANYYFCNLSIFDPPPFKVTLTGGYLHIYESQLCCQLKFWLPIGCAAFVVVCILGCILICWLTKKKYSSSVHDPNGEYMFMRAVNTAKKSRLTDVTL
Wildtype ICOSL ECD-Fc (Fc fusion), sequence (chain): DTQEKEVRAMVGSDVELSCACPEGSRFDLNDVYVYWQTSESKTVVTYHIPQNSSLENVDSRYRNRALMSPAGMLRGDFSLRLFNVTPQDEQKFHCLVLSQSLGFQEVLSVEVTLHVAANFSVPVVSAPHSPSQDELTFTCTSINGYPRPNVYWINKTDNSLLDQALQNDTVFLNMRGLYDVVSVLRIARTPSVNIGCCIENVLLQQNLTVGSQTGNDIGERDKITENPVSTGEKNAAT
human PD-1 (human), sequence (Q15116 25-288): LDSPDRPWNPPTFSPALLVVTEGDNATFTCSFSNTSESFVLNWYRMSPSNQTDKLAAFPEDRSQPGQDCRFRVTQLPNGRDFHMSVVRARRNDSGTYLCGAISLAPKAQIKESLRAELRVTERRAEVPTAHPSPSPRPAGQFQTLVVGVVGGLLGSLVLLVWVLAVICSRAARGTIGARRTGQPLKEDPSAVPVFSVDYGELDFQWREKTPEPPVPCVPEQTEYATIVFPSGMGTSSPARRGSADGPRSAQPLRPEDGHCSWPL
PD-1-Fc (human), sequence (Q15116 25-167 limits assumed): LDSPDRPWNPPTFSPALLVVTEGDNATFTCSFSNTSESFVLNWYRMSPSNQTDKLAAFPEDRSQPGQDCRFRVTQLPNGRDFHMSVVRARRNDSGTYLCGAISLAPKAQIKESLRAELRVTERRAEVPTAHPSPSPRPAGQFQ

MFI at 22.2 nM [1]: 1770 MFI
MFI at 66.6 nM [2]: 1620 MFI
MFI at 66.6 nM [3]: 20700 MFI
Substance: WT CD80 IgV-Fc (inert) (Fc fusion)

IFN gamma levels pg/mL (MLR) [4]: 1530 pg/mL
Fortebio Response Units (Response Units) [5]: -0.04
Substance: variant PD-L2 IgV I13V/H15Q/R76G/I85F Fc fusion

EC50 [6]: 200 pM
100 nM IFN-gamma (pg/mL), SEB assay [7]: 9660 pg/mL
Substance: CD58 (WT) 3650-Fc (Fc fusion)

MFI at 66.6 nM [8]: 5960 MFI
MFI at 22.2 nM [9]: 4740 MFI
MFI at 66.6 nM [10]: 2590 MFI
Substance: Fc only

MFI [11]: 4400 MFI
Substance: ICOSL ECD-Fc N30D/K42E/N52S/H115R/F172S/N194D (Fc fusion)

MFI at 20 nM [12]: 1060
MFI at 20 nM [13]: 1010
MFI at 20 nM [14]: 1010
MFI at 20 nM [15]: 1140
Substance: Anti-huFc PE (tool reagent)

MFI [16]: 36600 MFI
MFI [17]: 3800 MFI
MFI [18]: 212000 MFI
MFI [19]: 330000 MFI
MFI [20]: 83800 MFI
MFI [21]: 4770 MFI
Substance: Wildtype ICOSL ECD-Fc (Fc fusion)

MFI [22]: 1580 MFI
Substance: ICOSL ECD-Fc N52Q/N84Q/N168Q (Fc fusion)
